According to paper PMC5458252, “Niclosamide is a potential therapeutic for familial adenomatosis polyposis by disrupting Axin-GSK3 interaction” (Oncotarget, 2017):

Molecular target: T1, His-tagged recombinant GSK3β (UniProt P49841 1-420)
T1 construct: GSK3β, recombinant; source: sf9 insect cells, recombinant, purified
Test: SPR; ProteOn XPR36; GSK3β immobilised on a GLH sensor chip; peptides in PBS with Tween 20 and 1% DMSO flowed at 100 μl/min; Langmuir model
Settings: both partners purified

T1 sequence (P49841 whole entry): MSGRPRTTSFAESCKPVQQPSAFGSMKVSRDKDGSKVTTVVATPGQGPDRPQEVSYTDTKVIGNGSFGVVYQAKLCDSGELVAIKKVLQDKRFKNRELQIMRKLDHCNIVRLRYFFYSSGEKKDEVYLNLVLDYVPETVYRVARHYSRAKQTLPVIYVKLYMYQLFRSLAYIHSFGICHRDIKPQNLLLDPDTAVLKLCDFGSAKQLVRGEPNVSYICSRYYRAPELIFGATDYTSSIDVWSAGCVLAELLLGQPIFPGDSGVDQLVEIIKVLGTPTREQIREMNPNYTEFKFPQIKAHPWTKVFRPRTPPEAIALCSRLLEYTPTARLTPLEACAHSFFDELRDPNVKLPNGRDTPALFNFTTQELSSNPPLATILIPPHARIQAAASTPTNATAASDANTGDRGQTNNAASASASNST

B1: 19-mer wild type Axin peptide (peptide)
peptide: VEPQKFAEELIHRLEAVQR
notes: Axin1, residues 383-401; source: synthetic peptide
B1 was tested, and the Kd was 11.9 µM.
